Consider two molecules from US20170137467A1 (CHROMOTEK, published 2017).

Common to all, as to assay: positional peptide library pulldown on immobilised Nb, LC-MS of supernatant; signal ratio to control GFP-Nb (1 = not captured, near 0 = captured)
The target of experiment [1] is T1, BC2T W10A.
T1 construct: positional scanning library member
T1 peptide: Ac-PDRKAAVSHAQQ-NH2
In short, it runs like this: (§1)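 Unbound peptide left in supernatant after 1 h pulldown in PBS/0.01% CHAPS measured by reversed-phase LC-MS (8–30% eluent B gradient, 20 min).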

In experiment [2] the target is T2, BC2T H9G.
T2 construct: positional scanning library member
T2 peptide: Ac-PDRKAAVSGWQQ-NH2
In short, it runs like this:
as §1

Experiment [3] has as its target T3, BC2T S8V.
T3 construct: positional scanning library member
T3 peptide: Ac-PDRKAAVVHWQQ-NH2
The procedure, abridged: as §1

Experiment [4] deals with T4, BC2T H9V.
T4 construct: positional scanning library member
T4 peptide: Ac-PDRKAAVSVWQQ-NH2
The procedure, abridged: as §1

Experiment [5] has as its target T5, BC2T Q11V.
T5 construct: positional scanning library member
T5 peptide: Ac-PDRKAAVSHWVQ-NH2
In short, it runs like this: as §1

For experiment [6], the target named is T6, BC2T S8(I/L1) (N-terminal acetyl; C-terminal amide).
T6 construct: positional scanning library member; I or L not resolved
In short, it runs like this: as §1

Experiment [7] concerns the target T7, BC2T H9(I/L1) (N-terminal acetyl; C-terminal amide).
T7 construct: positional scanning library member; I or L not resolved
The procedure, abridged: as §1

Experiment [8] has as its target T8, BC2T S8(I/L2) (N-terminal acetyl; C-terminal amide).
T8 construct: positional scanning library member; I or L not resolved
In short, it runs like this: as §1

For experiment [9], the target named is T9, BC2T H9(I/L2) (N-terminal acetyl; C-terminal amide).
T9 construct: positional scanning library member; I or L not resolved
The procedure, abridged: as §1

The target of experiment [10] is T10, BC2T W10(I/L2) (N-terminal acetyl; C-terminal amide).
T10 construct: positional scanning library member; I or L not resolved
The procedure, abridged:
as §1

In experiment [11] the target is T11, BC2T Q12P.
T11 construct: positional scanning library member
T11 peptide: Ac-PDRKAAVSHWQP-NH2
The procedure, abridged: as §1

For experiment [12], the target named is T12, BC2T S8F.
T12 construct: positional scanning library member
T12 peptide: Ac-PDRKAAVFHWQQ-NH2
The procedure, abridged:
as §1

For experiment [13], the target named is T13, BC2T W10F.
T13 construct: positional scanning library member
T13 peptide: Ac-PDRKAAVSHFQQ-NH2
In short, it runs like this: as §1

The target in experiment [14] is T14, BC2T Q12S.
T14 construct: positional scanning library member
T14 peptide: Ac-PDRKAAVSHWQS-NH2
In short, it runs like this:
as §1

For experiment [15], the target named is T15, BC2T S8T.
T15 construct: positional scanning library member
T15 peptide: Ac-PDRKAAVTHWQQ-NH2
In short, it runs like this: as §1

The target of experiment [16] is T16, BC2T H9T.
T16 construct: positional scanning library member
T16 peptide: Ac-PDRKAAVSTWQQ-NH2
In short, it runs like this: as §1

Experiment [17] has as its target T17, BC2T S8Y.
T17 construct: positional scanning library member
T17 peptide: Ac-PDRKAAVYHWQQ-NH2
The procedure, abridged:
as §1

Experiment [18] has as its target T18, BC2T Q11Y.
T18 construct: positional scanning library member
T18 peptide: Ac-PDRKAAVSHWYQ-NH2
In short, it runs like this: as §1

The target in experiment [19] is T19, BC2T H9R.
T19 construct: positional scanning library member
T19 peptide: Ac-PDRKAAVSRWQQ-NH2
In short, it runs like this: as §1

In experiment [20] the target is T20, BC2T W10R.
T20 construct: positional scanning library member
T20 peptide: Ac-PDRKAAVSHRQQ-NH2
In short, it runs like this:
as §1

Experiment [21] has as its target T21, BC2T S8H.
T21 construct: positional scanning library member
T21 peptide: Ac-PDRKAAVHHWQQ-NH2
The procedure, abridged: as §1

B1: BC2 nanobody (VHH)
VHH: QVQLVESGGGLVQPGGSLTLSCTASGFTLDHYDIGWFRQAPGKEREGVSCINNSDDDTYYADSVKGRFTIFMDNAKDTVYLQMNSLKPEDTAIYYCAEARGCKRGRYEYDFWGQGTQVTVSS
notes: immobilised on beads in this assay; also called BC2-Nb; BC2 nanotrap (immobilised)
As to B1, the ratio in experiment [1] is 1; in experiment [2], 0.4; in [3] it was 0.1; in experiment [4] it was 0.2; in [5], 0.1; in experiment [6], 0.4. For the same molecule, the ratio in experiment [7] worked out at 0.3; in [8], 0.7; in [9], 0.1; in experiment [10], 1; in experiment [11] it was 0.1; in experiment [12], 0.7. The ratio in experiment [13] stood at 0.9; in experiment [14], 0.1; in experiment [15], 0.1; in [16], 0.2; in [17], 0.6; in [18], 0. Also, the ratio in [19] is 0.1; in experiment [20], 1; in experiment [21], 0.7.

B2: BC2-NbR106S (VHH)
VHH: QVQLVESGGGLVQPGGSLTLSCTASGFTLDHYDIGWFRQAPGKEREGVSCINNSDDDTYYADSVKGRFTIFMDNAKDTVYLQMNSLKPEDTAIYYCAEARGCKRGSYEYDFWGQGTQVTVSS
notes: headlock mutant of BC2-Nb; immobilised on beads in this assay
Turning to B2, the ratio in [1] is 1; in experiment [2], 0.8; in experiment [3] it was 0.3; in experiment [4], 0.6; in experiment [5], 0.2; in experiment [6], 0.6. Further, the ratio turned out to be 0.5 in experiment [7]; 0.9 in [8]; 0.3 in experiment [9]; 1.1 in experiment [10]; 0.2 in experiment [11]; 0.9 in experiment [12]. Besides, the ratio was 1.1 in [13]; 0.2 in experiment [14]; 0.2 in experiment [15]; 0.5 in [16]; 0.9 in [17]; 0.1 in [18]. Also, the ratio in experiment [19] stood at 0.2; in [20], 1.1; in experiment [21], 0.9.
